{"source": "paper PMC3961392", "assay_in_all_cases": "fluorescence anisotropy", "key": {"[1]": {"target": "T1, A3F (UniProt Q8IUX4)", "T1 sequence": "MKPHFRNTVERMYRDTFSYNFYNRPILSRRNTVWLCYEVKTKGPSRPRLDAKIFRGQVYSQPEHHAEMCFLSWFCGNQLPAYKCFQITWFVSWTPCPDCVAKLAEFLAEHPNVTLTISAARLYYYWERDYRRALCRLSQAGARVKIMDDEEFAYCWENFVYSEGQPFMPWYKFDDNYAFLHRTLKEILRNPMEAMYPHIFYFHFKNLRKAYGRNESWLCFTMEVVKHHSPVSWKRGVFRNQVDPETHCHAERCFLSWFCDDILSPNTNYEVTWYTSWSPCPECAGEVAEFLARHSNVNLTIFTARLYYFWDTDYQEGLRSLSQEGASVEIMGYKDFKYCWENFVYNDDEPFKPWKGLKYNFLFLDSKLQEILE", "conditions": "apparent Kd; 10 mM Mg2+; RT buffer: 50 mM Tris pH 7.4, 40 mM KCl, 10 mM MgCl2, 1 mM DTT; 10 nM F-labeled DNA; 21 C"}, "[2]": {"target": "T2, A3F CTD (UniProt Q8IUX4)", "T2 sequence": "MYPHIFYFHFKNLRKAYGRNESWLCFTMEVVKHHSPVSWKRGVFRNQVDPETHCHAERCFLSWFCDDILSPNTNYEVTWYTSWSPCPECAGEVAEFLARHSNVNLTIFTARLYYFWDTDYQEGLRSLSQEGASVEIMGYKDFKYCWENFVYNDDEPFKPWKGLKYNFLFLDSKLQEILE", "conditions": "RT buffer: 50 mM Tris pH 7.4, 40 mM KCl, 10 mM MgCl2, 1 mM DTT; 10 nM F-labeled DNA; 21 C"}, "[3]": {"target": "T3, A3F NGM P191G (UniProt Q8IUX4)", "T3 sequence": "T1 sequence with P191G", "conditions": "RT buffer: 50 mM Tris pH 7.4, 40 mM KCl, 10 mM MgCl2, 1 mM DTT; 10 nM F-labeled DNA; 21 C"}, "[4]": {"target": "T4, GST-A3F (UniProt Q8IUX4)", "T4 sequence": "T1 sequence", "conditions": "RT buffer: 50 mM Tris pH 7.4, 40 mM KCl, 10 mM MgCl2, 1 mM DTT; 10 nM F-labeled DNA; 21 C"}}, "note": "Positions count from the first letter of the chain named. pKd: −log10 of the molar value."}
{"sequence": "GAATATAGTTTTTAGTTCAAAGTAAGTGAAGATAATTTAGAGAGTTGTAATGTGATATATGTGTATGAAAGATATAAGATTCAAAGAGTAAAGTTGTTAATGTGTGTAGATATGTTAA [A3F - 63 (TTC) (118 nt)]", "values": [{"measurement": "pKd", "setting": "[1]", "result": 7.70}, {"measurement": "pKd", "setting": "[2]", "result": 6.54}, {"measurement": "pKd", "setting": "[3]", "result": 6.92}, {"measurement": "pKd", "setting": "[4]", "result": 7.34}]}
